Literature values as cited in patent US6406710B1, “Protein occlusion for delivery of small molecules” (priority 1998, dated 2002).

Details: relatively high doses, human clinical trials

B1: BDNF: Brain Derived Neurotrophic Factor, a neurotrophin proposed as carrier protein (protein, UniProt P23560 19-247, looked up)
Neurotrophic factor BDNF …: APMKEANIRGQGGLAYPGVRTHGTLESVNGPKAGSRGLTSLADTFEHVIEELLDEDQKVRPNEENNKDADLYTSRVMLSSQVPLEPPLLFLLEEYKNYLDAANMSMRVRRHSDPARRGELSVCDSISEWVTAADKKTAVDMSGGTVTVLEKVPVSKGQLKQYFYETKCNPMGYTKEGCRGIDKRHWNSQCRTTQSYVRALTMDSKKRIGWRFIRIDTSCVCTLTIKRGR
For B1, the tolerability is listed as “well tolerated with insignificant adverse effects”.
